Percent of cells labeled, percent of cells positive for staining and percent of lymphocytes included in rosettes data for three substances are collected here from patent publication US20050152916A1.

Several values for one entry are separate records, joined by “and”; a condition that tells them apart may be missing. Equal entries are not always repeated.

Experiment [1] has as its target recombinant biotinylated L^d immobilized on avidin-coated sheep red blood cells (mouse). The experiment can be described thus: flow cytofluorometry of L^d-coated SRBC with anti-L^d antibody 30.5.7 (FIG. 8).
Experiment [2] deals with 2C T-cell receptor (on T-cells of 2C TCR transgenic mice) (mouse). Nature of the experiment: staining of purified CD8+ lymph node cells of 2C mice.
Experiment [3] has the same target. The experiment can be described thus: flow cytofluorometry of purified 2C TCR transgenic lymph node T-cells.
Experiment [4] concerns the target L^d on cells loaded with QL9 peptide (mouse) (UniProt P01887).
Experiment [5] concerns the target recombinant biotinylated L^d immobilized on a support, loaded with QL9 peptide (mouse) (UniProt P01887).

Sequence of L^d on cells loaded with QL9 peptide (mouse) (P01897 25-362, chain 1 of 2): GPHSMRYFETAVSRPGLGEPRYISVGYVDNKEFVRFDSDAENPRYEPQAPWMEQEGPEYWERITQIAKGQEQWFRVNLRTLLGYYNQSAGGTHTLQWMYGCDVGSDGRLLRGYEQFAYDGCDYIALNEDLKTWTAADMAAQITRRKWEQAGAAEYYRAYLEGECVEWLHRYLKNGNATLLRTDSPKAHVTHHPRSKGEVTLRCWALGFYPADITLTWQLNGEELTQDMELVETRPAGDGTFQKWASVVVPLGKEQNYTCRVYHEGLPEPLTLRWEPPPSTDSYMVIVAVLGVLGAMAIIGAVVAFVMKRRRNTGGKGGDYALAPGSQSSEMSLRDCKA
Sequence of L^d on cells loaded with QL9 peptide (mouse) (P01887 21-119, chain 2 of 2): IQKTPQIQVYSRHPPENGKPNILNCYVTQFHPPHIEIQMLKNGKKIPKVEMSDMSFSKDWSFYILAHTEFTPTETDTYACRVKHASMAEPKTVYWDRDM
Sequence of recombinant biotinylated L^d immobilized on a support, loaded with QL9 peptide (mouse) (P01897 25-309 limits assumed, chain 1 of 2): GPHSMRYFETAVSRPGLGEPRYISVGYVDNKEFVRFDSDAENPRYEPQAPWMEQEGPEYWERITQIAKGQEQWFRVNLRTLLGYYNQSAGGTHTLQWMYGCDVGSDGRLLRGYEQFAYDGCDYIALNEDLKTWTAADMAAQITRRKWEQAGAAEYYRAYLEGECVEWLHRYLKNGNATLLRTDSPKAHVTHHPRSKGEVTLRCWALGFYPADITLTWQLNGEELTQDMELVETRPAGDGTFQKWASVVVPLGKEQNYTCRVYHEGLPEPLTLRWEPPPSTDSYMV
Sequence of recombinant biotinylated L^d immobilized on a support, loaded with QL9 peptide (mouse) (P01887 21-119 limits assumed, chain 2 of 2): as the sequence (P01887 21-119, chain 2 of 2) above

monoclonal antibody 30.5.7 (anti-L^d): the percent of cells labeled in experiment [1] worked out at 99.8%.

As to “monoclonal antibody 1B2 (anti-clonotypic antibody to the 2C T-cell receptor)”, the percent of cells positive for staining in experiment [2] was > 95%; in experiment [3] it was 97% and 98%.

For “2C T-cell receptor (on T-cells of 2C TCR transgenic mice)”, the percent of lymphocytes included in rosettes in experiment [4] was 30% and 40%; in experiment [5], 30% and 40%.
